Measured values as given in PMC4380455 (PLoS ONE, 2015).

B1: TM1088B (natural protein, T. maritima, UniProt D3KFX8 1-218, looked up)
chain: MKVIIIGGETTAYYLARSMLSRKYGVVIINKDRELCEEFAKKLKATIIHGDGSHKEILRDAEVSKNDVVVILTPRDEVNLFIAQLVMKDFGVKRVVSLVNDPGNMEIFKKMGITTVLNLTTLITNTVEALIFPDEFSSIIPLEQGIEFLSVNVEEDSPVVGKKLKDLPLPRDSIIAAIVRGGVLVVPRGDTEILSGDKLYVIVSAEAKETVEETLLGR
notes: TM1088B of Thermotoga maritima MSB8 (DSM3109), full length, residues 1-218, 24.0 kDa; UniProt D3KFX8_THEMA; also called N1 and C1 domains

Columns and labels:
TM1088A = molecular target: T1, TM1088A (Thermotoga maritima, UniProt D3KFX7); assay: X-ray crystal structure, […] Å; format: binding; settings: AMP co-purified from E. coli host, not added; nucleotide site GXGXXG (Gly14/Gly16/Gly19), Arg17, Ala59, Arg105; crystallised pH 6.5
T1 construct: gene TM1088

[1] = molecular target: the molecule itself; assay: crystal structure; TM1088A:TM1088B octameric assembly (4 TM1088A, 4 TM1088B, 4 AMP in the asymmetric unit), 3.45 Å, PDB 3L4B; complex at 3 mg/ml with NADH added 1.1:1.0; 0.1 M magnesium chloride, 15% PEG 4000, 0.1 M HEPES pH 7.0
[2] = molecular target: the molecule itself; assay: crystal structure; TM1088B C-terminal domain (140-218) alone, tag intact, 1.55 Å, PDB 3JXO; two chains in the asymmetric unit; 25% ethylene glycol, 293 K
[3] = molecular target: the molecule itself; assay: crystal structure; TM1088A alone, 1.50 Å, PDB 2G1U; one molecule in the asymmetric unit, dimer formed in the crystal lattice; 40% MPD, 5% PEG-8000, 0.1 M cacodylate pH 6.5, 293 K
TM1088B = molecular target: B1; assay: crystal structure; TM1088A:TM1088B octameric assembly (4 TM1088A, 4 TM1088B, 4 AMP in the asymmetric unit), 3.45 Å, PDB 3L4B; complex at 3 mg/ml with NADH added 1.1:1.0; 0.1 M magnesium chloride, 15% PEG 4000, 0.1 M HEPES pH 7.0; settings: both partners purified

Molecule: Nc1ncnc2c1ncn2[C@@H]1O[C@H](COP(=O)(O)O)[C@@H](O)[C@H]1O [AMP]
- X-ray crystal structure, 1.50 Å (TM1088A): AMP was co-purified with TM1088A and appears in both the high-resolution TM1088A structure

Molecule: B1
- stoichiometry N [1]: 2

B2: TM1088B C-terminal domain (domain or fragment, T. maritima, UniProt D3KFX8 140-218, looked up)
chain: IPLEQGIEFLSVNVEEDSPVVGKKLKDLPLPRDSIIAAIVRGGVLVVPRGDTEILSGDKLYVIVSAEAKETVEETLLGR
notes: TM1088B of Thermotoga maritima MSB8 (DSM3109), C-terminal domain, residues 140-218; UniProt D3KFX8_THEMA; Crystallised with the tag intact; also called TM1088B (residues 140-218); C1 domain; source: E. coli HK100, plasmid pSpeedET-TM1088B, purified (Ni-NTA agarose)
- stoichiometry N [2]: 2

B3: TM1088A (natural protein, T. maritima, UniProt D3KFX7 1-143, looked up)
chain: MSKKQKSKYIVIFGCGRLGSLIANLASSSGHSVVVVDKNEYAFHRLNSEFSGFTVVGDAAEFETLKECGMEKADMVFAFTNDDSTNFFISMNARYMFNVENVIARVYDPEKIKIFEENGIKTICPAVLMIEKVKEFIIGSEED
notes: TM1088A of Thermotoga maritima MSB8 (DSM3109), full length, residues 1-143, 16.0 kDa; UniProt D3KFX7_THEMA; first open reading frame of the TM1088 locus; The same construct was purified alone (2G1U) and in complex with untagged TM1088B (3L4B) from one plasmid by different purification schemes; AMP co-purified with it; Tag residues are numbered Met(-11) to 0; also called TM_1087.1; N2 domain; …
- stoichiometry N [3]: 2
- binding result (TM1088B): binds
